Results from patent US20240287172A1, “PROTEIN BINDERS TO IRHOM2 EPITOPES” (SCIRHOM GMBH, priority 2019, published 2024).

Experiments:
hiR2-FL-H505R-T7 (human) = target: T1, hiR2-FL-H505R-T7 (human) (UniProt Q6PJF5); test: FACS, MEF-DKO cells, 3 µg/ml
T1 sequence: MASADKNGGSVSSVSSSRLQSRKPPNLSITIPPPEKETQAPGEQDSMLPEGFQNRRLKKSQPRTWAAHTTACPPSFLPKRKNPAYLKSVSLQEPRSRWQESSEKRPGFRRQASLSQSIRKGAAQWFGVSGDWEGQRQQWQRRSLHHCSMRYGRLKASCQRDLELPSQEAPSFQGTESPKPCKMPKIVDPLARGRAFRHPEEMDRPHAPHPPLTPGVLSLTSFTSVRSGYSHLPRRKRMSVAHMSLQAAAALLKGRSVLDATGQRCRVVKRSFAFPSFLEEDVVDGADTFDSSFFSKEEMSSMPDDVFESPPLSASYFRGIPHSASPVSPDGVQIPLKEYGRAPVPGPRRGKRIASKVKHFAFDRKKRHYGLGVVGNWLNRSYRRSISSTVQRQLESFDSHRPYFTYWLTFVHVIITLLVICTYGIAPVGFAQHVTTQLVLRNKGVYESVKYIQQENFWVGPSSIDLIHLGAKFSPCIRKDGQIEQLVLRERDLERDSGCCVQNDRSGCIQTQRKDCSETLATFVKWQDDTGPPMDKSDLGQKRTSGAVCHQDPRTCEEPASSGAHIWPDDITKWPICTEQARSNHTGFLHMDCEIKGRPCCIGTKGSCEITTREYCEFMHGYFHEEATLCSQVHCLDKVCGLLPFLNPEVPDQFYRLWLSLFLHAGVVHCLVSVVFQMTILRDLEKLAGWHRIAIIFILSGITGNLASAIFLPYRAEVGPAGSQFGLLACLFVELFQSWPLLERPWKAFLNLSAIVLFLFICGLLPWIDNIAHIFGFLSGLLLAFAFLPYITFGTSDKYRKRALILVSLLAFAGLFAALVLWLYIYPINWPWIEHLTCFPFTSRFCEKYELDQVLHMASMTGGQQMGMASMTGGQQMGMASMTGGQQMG

hiR2-FL-K536A-T7 (human) = target: T2, hiR2-FL-K536A-T7 (human) (UniProt Q6PJF5); test: FACS on MEF-DKO cells expressing the variant, 3 µg/ml antibody
T2 sequence: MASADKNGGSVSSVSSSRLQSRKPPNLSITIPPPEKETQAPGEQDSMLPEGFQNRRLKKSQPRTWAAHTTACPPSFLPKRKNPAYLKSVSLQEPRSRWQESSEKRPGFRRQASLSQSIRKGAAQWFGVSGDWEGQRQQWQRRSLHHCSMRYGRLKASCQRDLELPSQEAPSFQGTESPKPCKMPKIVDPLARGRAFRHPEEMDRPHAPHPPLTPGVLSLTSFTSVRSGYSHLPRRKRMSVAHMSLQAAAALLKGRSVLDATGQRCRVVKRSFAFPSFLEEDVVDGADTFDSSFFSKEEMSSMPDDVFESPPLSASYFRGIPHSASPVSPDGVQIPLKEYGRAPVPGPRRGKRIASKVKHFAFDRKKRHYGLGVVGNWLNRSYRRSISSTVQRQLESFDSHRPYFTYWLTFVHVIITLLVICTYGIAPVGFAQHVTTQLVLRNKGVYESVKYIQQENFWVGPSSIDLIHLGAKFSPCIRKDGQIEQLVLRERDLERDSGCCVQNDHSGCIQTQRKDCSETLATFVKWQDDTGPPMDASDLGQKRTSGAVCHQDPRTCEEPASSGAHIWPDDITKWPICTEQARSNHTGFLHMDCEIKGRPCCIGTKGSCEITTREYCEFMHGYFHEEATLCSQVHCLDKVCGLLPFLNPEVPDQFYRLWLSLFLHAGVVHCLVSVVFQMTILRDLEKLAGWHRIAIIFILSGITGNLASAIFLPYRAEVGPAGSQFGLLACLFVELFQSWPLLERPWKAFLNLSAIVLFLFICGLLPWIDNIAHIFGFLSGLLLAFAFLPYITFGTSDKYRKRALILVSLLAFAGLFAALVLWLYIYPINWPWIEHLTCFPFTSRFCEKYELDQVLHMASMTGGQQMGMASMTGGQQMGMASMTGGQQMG

B1: antibody 48 (antibody, V domains shown)
VH: QVQLQQSGTELVRPGTSVKVSCKASGYAFTNYLIEWVKQRPGQGLEWIGVINPGSGFTKYNEKFKGKATLTADKSSSTVYMHLSSLTSEDSAVYFCARGLYRAMDYWGQGTSVTVSS
VL: DIQMTQSPASQSASLGESVTITCLASQTIATWLAWYQQKPGKSPQLLIYGATTLADGVPSRFSGGGSGTKFSFKISSLQAEDFVSYYCQQLYSTPYTFGGGTKLEIK
loss of binding vs wild type (hiR2-FL-H505R-T7 (human)): > 60%

B2: antibody 34 (antibody, V domains shown)
VH: QVTLKESGPGILQPSQTLSLTCSFSGFSLSTFSLGVGWIRQSSGKGLEWLAHIWWDDEKYYNPALKSRLTISKDTSKNQVFLKIANVDAADTATYYCARAYYSKSYYALDYWGQGTSVTVSS
VL: DIQMTQSPSSLSASLGERVSLTCRASQEISGYLSWLQQKPDGTIKRLIYAASTLDSGVPKRFSGSRSGSDYSLAISSLESEDFADYYCLQYANFPFTFGSGTKLEIK
loss of binding vs wild type (hiR2-FL-K536A-T7 (human)): > 95%

B3: antibody 22 (antibody, V domains shown)
VH: QVTLKESGPGILQPSQTLSLTCSFSGFSLSTFGMGVGWIRQPSGKGLEWLAHIWWDDEKYYNSALKSRLTISKATSKNQVFLKIANVDTADTATYYCARISNYGSNYWYFNVWGTGTTVTVSS
VL: QVVLTQSPALMSASPGEKVTMTCSAGSSVSYMYWYQQKPGSSPRVLIYDTSNLASGVPARFTGSGSGTSYSLTISRMEAEDAATYYCQQWNSYPLTFGAGTKLELK
loss of binding vs wild type (hiR2-FL-K536A-T7 (human)): > 95%

B4: antibody 42 (antibody, V domains shown)
VH: QVTLKESGPGILQPSQTLSLTCSLSGFSLSTFGRGVGWIRQPSGKGLEWLAHIWWDDEKYYNPALKSRLTISKDTSKNQVFLRIANVDTADTATYYCARIQNYGSNYWYFDVWGTGTTVTVSS
VL: LIVLTQSPAIMSASPGEKVTMTCGATSRISYMFWYQQKPGSSPRVLIYDTSNLASGVPVRFSGSGSGTSYSLTISRVEAEDVATYYCQQWNSYPLTFGAGTKLELK
loss of binding vs wild type (hiR2-FL-K536A-T7 (human)): > 95%

B5: antibody 44 (antibody, V domains shown)
VH: QVTLKESGPGILQPSQTLSLTCSFSGFSLSTFGMGVGWIRQPSEKGLEWLAHIWWDDDKYYNPALKSRLTISKDTSKNQIFLKITNVDTAETATYYCSRIGNYGSNYWYFDVWGTGTTVTVSS
VL: QIVLTQSPAVMSASPGEKVTMTCTASSSVYYMYWYQQTPGSSPRLLIYDTSNLASGVPVRFSGSGSGTSYSLTISRMEAEDAATYYCQQWNTYPLTFGAGTKLELK
loss of binding vs wild type (hiR2-FL-K536A-T7 (human)): > 95%
